Reference: US11419945B2, “Antigen binding proteins” (Glaxo Group Limited, priority 2011, dated 2022)

Key:
Human BCMA-Fc = target: T1, Human BCMA-Fc (Homo sapiens, UniProt Q02223); assay: ELISA binding to recombinant human BCMA-Fc; details: 5 ug/ml to 0.1 ug/ml antibody
T1 construct: CD33 signal peptide (N); TEV site (internal)
Procedure: Chimeric CA8 antibodies were tested for binding to human BCMA and cyno BCMA expressed as Fc fusions. Human BCMA-Fc and cyno BCMA-Fc were coated to ELISA plates and the plates were blocked using BSA to reduce non specific binding. CA8 chimeric antibodies were added in a concentration range from 5 ug/ml to 0.1 ug/ml to the human and cyno BCMA coated ELISA plates. Any bound human chimeric CA8 antibody was detected using anti-human IgG HRP conjugated secondary antibody as appropriate. HRP substrate (TMB) was added to develop the ELISA.

human BCMA HEK293 = target: T2, human BCMA HEK293 (Homo sapiens, UniProt Q02223); assay: FMAT binding assay, human BCMA expressing HEK293 cells; details: range of antibody concentrations
T2 construct: expressed in transfected cells; host or cells: HEK293
T2 sequence (Q02223 1-184): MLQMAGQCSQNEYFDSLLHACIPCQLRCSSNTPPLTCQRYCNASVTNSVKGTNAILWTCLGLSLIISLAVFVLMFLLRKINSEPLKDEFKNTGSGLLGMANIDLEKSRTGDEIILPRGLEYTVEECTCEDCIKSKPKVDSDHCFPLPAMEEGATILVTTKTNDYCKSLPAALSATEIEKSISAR
Procedure: (§1) Cryopreserved transfected human, cyno BCMA and mock transfected HEK293 cells were recovered from LN2 storage. Assay wells were prepared with human chimeric CA8 antibody, at a range of different concentrations, mixed with human BCMA HEK293, cyno BCMA HEK293 and mock transfected cells respectively. Anti-human IgG FMAT Blue secondary conjugate was added for detection of human chimeric CA8. The assay plates were left for a minimum of 90 minutes before the result was read on the ABI8200 (FMAT) plate reader.

Human commercial BCMA = target: T3, Human commercial BCMA (Homo sapiens, UniProt Q02223); assay: ProteOn analysis of CA8 chimeric and humanised constructs, commercial human BCMA; assay type: binding; details: Run 2, commercial human BCMA, 25° C.
T3 construct: purchased US Biological B0410
T3 sequence (Q02223 1-184): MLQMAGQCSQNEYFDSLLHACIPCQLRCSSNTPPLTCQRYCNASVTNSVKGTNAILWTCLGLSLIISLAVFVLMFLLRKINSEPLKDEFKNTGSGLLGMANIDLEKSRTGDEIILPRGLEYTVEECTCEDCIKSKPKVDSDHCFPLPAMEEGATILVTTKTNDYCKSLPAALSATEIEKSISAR
Procedure: The initial screen of CA8 chimeric and humanised variants was carried out on the ProteOn XPR36 (Biorad). The method was as follows; Protein A was immobilised on a GLC chip (Biorad, Cat No: 176-5011) by primary amine coupling, CA8 variants were then captured on this surface and recombinant human BCMA (in house or commercial US Biological, B0410) materials (run 2 only)) passed over at 256, 64, 16, 4, 1 nM with a 0 nM injection (i.e. buffer alone) used to double reference the binding curves, the buffer used is the HBS-EP buffer. 50 mM NaOH was used to regenerate the capture surface. The data was fitted to the 1:1 model using the analysis software inherent to the ProteOn XPR36. Run 1 corresponds to the first screen of humanised CA8 variants (JO to J5 series) and run 2 to the second screen of humanised CA8 variants (J5 to J9 series). Both runs were carried out at 25° C.

cyno BCMA HEK293 = assay: FMAT binding assay, cyno BCMA expressing HEK293 cells; details: range of antibody concentrations
Sequence of cyno BCMA HEK293 (as listed by the source): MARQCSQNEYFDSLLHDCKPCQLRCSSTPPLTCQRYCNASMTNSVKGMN
Procedure: as §1

[1] = tested on: multiple myeloma cell lines H929, OPM-2, JJN-3 and U266; assay: FACS binding curve of chimeric CA8 to multiple myeloma cells; parameters: species or system human; details: varying concentrations, 20 minutes at RT
Procedure: A panel of multiple myeloma cell lines were used to determine the binding of chimeric CA8. […] Cells were then washed with FACS buffer (PBS+0.5% BSA+0.1% sodium azide) to remove unbound antibody. Cells were incubated with a secondary PE labelled anti-human IgG antibody for 15 minutes at RT and then washed with FACS buffer to remove unbound antibody. Cells were analysed by FACS and mean fluorescence intensity (MFI) values measured to determine binding.

[2] = tested on: human multiple myeloma cell lines NCI-H929, U266-B1, JJN3 and OPM2; assay: ADC activity of chimeric CA8 ADCs, 4 multiple myeloma cell lines (Cell titre Glo, 96 hours); assay type: cell-based; details: 1 ug/ml to 5 ng/ml, all 4 cell lines
Procedure: FIG. 11: Viability assay dose response curves—Figure showing dose response curves in a cell viability assay for chimeric CA8 antibody, chimeric CA8-vcMMAE and chimeric CA8-mcMMAF antibody-drug conjugates in human multiple myeloma cell lines NCI-H929, U266-B1, JJN3 and OPM2. Antibody was added to the cells and the number of viable cells after 96 hours measured using CelltiterGlo. Data points represent the mean of triplicate CellTiterGlo measurements. Error bars represent standard error.
Multiple Myeloma cell lines were treated with chimeric CA8 antibody-drug conjugates to determine the ADC concentrations required for growth inhibition and death.
The antibody drug conjugates tested were added to wells containing multiple myeloma cells at concentrations ranging from 1 ug/ml to 5 ng/ml. The plates were incubated at 37° C. for 96 hours at which point viable cells were quantitated using Cell titre Glo.

Cyno in house BCMA [3] = assay: ProteOn analysis of CA8 chimeric and humanised constructs, cyno in house BCMA; assay type: binding; details: 25° C.; for ka: in M-1s-1 (unit assumed); for kd: in s-1 (unit assumed)
Sequence of Cyno in house BCMA (as listed by the source): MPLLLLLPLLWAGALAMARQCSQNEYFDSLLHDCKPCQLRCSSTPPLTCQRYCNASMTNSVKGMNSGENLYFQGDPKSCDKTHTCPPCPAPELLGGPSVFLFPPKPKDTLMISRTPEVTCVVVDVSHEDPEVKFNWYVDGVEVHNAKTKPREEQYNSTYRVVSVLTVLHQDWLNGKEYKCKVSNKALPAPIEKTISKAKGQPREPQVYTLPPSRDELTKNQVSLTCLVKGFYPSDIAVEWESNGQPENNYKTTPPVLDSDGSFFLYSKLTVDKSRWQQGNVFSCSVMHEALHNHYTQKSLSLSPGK

Cyno in house BCMA [4] = assay: BIAcore analysis J7 to J9 series, cyno in house BCMA; assay type: binding; details: 37° C.

T1 sequence (Q02223 with tags, fused parts or gaps): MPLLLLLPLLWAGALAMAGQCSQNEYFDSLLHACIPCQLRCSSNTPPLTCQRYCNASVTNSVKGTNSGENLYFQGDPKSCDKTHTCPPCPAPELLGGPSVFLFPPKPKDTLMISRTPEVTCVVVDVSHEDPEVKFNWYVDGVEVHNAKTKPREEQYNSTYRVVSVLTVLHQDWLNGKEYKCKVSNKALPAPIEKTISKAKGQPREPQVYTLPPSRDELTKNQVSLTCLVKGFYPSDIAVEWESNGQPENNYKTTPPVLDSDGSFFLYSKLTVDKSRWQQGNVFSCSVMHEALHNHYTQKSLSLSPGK

B1: CA8 Chimera: chimeric anti-BCMA antibody: murine CA8 VH (SEQ ID NO:7) and VL (SEQ ID NO:9) on human γ1 and kappa constant regions (antibody, V domains shown)
VH: EVQLQQSGAVLARPGASVKMSCKGSGYTFTNYWMHWVKQRPGQGLEWIGATYRGHSDTYYNQKFKGKAKLTAVTSTSTAYMELSSLTNEDSAVYYCTRGAIYNGYDVLDNWGQGTLVTVSS
VL: DIQLTQTTSSLSASLGDRVTISCSASQDISNYLNWYQQKPDGTVELVIYYTSNLHSGVPSRFSGSGSGTDYSLTIGYLEPEDVATYYCQQYRKLPWTFGGGSKLEIKR
modifications: human IgG1 and kappa constant regions; mus musculus
- binding to recombinant human BCMA (ELISA) (Human BCMA-Fc; listed as Chimeric CA8): binds to recombinant human and cyno BCMA
- binding to recombinant human BCMA (ELISA) (Human BCMA-Fc; listed as human chimeric CA8 antibodies): bind to human and cyno BCMA proteins equally
- binding to human BCMA expressed on HEK293 cells (human BCMA HEK293): binds well
- ka (Human commercial BCMA; in M-1s-1 (unit assumed)): 7.05E+05
- kd (Human commercial BCMA; in s-1 (unit assumed)): 9.79E−05
- binding to cyno BCMA expressed on HEK293 cells (cyno BCMA HEK293): binds well
- binding to multiple myeloma cell lines by FACS (MFI) [1]: bound to multiple myeloma cell lines H929, OPM-2, JJN-3 & U266 in a dose dependent manner
- growth inhibitory activity [2]: no significant growth inhibitory activity
- ka (Cyno in house BCMA [3]; Run 1, Cyno in house BCMA): 3.82E+05
- kd (Cyno in house BCMA [3]; Run 1, Cyno in house BCMA): 1.74E−04
- ka (Cyno in house BCMA [3]; Run 2, Cyno in house BCMA): 5.89E+04
- kd (Cyno in house BCMA [3]; Run 2, Cyno in house BCMA): 1.21E−04
- ka (Cyno in house BCMA [4]; in M-1s-1 (unit assumed)): 1.15E+06
- kd (Cyno in house BCMA [4]; in s-1 (unit assumed)): 3.49E−04
